This note sets out measurements from US20110112172.

The target of data set [1] is human SDF-1 alpha (CXCL12) (Homo sapiens) (UniProt P48061). Kind of data set: SPR. The conditions noted are these: L-RNA, 37 C.
Data set [2] concerns the target biotinylated human D-SDF-1 (mirror-image CXCL12) (Homo sapiens) (UniProt P48061). Kind of data set: pulldown. The conditions noted are these: 37 C.

As a reminder, the Kd is a measure of binding affinity in units of concentration.

Chain of human SDF-1 alpha (CXCL12) (Homo sapiens) (P48061 22-89): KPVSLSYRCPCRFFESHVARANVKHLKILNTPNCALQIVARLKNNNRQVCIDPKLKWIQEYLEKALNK
Chain of biotinylated human D-SDF-1 (mirror-image CXCL12) (Homo sapiens) (P48061 22-92): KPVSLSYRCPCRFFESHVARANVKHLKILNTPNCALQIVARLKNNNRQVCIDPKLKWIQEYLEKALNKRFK

In turn, “AGCGUGGCGAGGUUAGGGCUAGAAGUCGGUCGACACGCU [191-D5-001 Spiegelmer]” returned a Kd in data set [1] (FIG. 21 cited here is labelled 191-D5-007) of 0.8 nM. Take “AGCGUGGUGUGAUCUAGAUGUAUUGGCUGAUCCUAGUCAGGUACGCU [193-G2-001 Spiegelmer]”: in data set [1], the Kd came to 0.5 nM. In other words, the sub-nanomolar range.

The sequence “AGCGUGGUGUGAUCUAGAUGUAUUGGCUGAUCCUAGUCAGGUACGCU [193-G2-001 aptamer (D)]” showed an equilibrium dissociation constant (Kd) in data set [2] (better than 192-A10-001 in competition) of 0.3 nM. As for “CGGGAGGUUAGGGCUAGAAGUCGGUCCCG [191-D5-007 Spiegelmer]”, in data set [1], the Kd came to 0.8 nM. This counts as sub-nanomolar. “CGGGAGGUUAGGGCUAGAAGUCGGUCCCG [191-D5-007 aptamer (D)]” returned a Kd in data set [2] (somewhat better than 191-D5-001 in competition) of 2.2 nM.

For the sequence “GAGAUAGGGGUUAGGGCUUAAAGUCGGCUGAUUCUC [190-A3-004 Spiegelmer]”, the dissociation constant (Kd) in data set [1] was determined as 4.7 nM. In other words, the single-digit nanomolar range. “GAGAUAGGGGUUAGGGCUUAAAGUCGGCUGAUUCUC [190-A3-004 aptamer (D)]” came in with a Kd in data set [2] (same affinity as 190-A3-001) of 4.6 nM.

With “GCGUGGUGUGAUCUAGAUGUAUUGGCUGAUCCUAGUCAGGUACGC [193-G2-012 aptamer (D)]”, in data set [2], the Kd came out at 0.3 nM. Sequence “GCUGUGAAAGCAACAUGUCAAUGAAAGGUAGCCGCAGC [192-A10-001 Spiegelmer]” registered a dissociation constant Kd in data set [1] (1 mM Mg, 1 mM Ca) of 1 nM. For “GCUGUGAAAGCAACAUGUCAAUGAAAGGUAGCCGCAGC [192-A10-001 aptamer (D)]”, the Kd in data set [2] (1 mM Mg, 1 mM Ca, pH 7.4) came out at 1.5 nM. As for “GUGCUGCGGGGGUUAGGGCUAGAAGUCGGCCUGCAGCAC [197-B2 Spiegelmer]”, in data set [1], the Kd turned out to be 0.9 nM.
